Measured values published in patent US20220025021A1 (BETH ISRAEL DEACONESS MEDICAL CENTER, published 2022).
Residue numbers refer to the chain shown, from its start.

B1: MS-90 (antibody)
VH: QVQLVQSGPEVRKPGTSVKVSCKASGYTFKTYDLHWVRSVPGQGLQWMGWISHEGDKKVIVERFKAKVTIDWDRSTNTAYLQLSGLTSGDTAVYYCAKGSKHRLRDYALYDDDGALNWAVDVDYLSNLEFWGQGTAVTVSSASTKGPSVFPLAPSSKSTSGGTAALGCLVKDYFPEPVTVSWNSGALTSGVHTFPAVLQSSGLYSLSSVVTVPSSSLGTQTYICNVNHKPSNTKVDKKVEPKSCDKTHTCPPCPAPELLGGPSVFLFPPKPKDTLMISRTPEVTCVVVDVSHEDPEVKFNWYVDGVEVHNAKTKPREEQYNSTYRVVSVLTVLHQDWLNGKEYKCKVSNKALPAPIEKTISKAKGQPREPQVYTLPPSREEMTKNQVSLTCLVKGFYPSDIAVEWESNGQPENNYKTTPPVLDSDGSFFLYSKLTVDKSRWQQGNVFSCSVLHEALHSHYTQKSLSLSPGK
VL: DFVLTQSPLSLSVTPGESASISCKSSHSLIHGDRNNYLAWYVQKPGRSPQLLIYLASSRASGVPDRFSGSGSDKDFTLKISRVETEDVGTYYCMQGRESPWTFGQGTKVDIKRTVAAPSVFIFPPSDEQLKSGTASVVCLLNNFYPREAKVQWKVDNALQSGNSQESVTEQDSKDSTYSLSSTLTLSKADYEKHKVYACEVTHQGLSSPVTKSFNRGEC
B2: MS-68 (antibody)
VH: not shown
VL: B1 VL with L9H, S12P
B3: MS-69 (antibody)
VH: not shown
VL: B1 VL with L9H, S18P
B4: MS-66 (antibody)
VH: not shown
VL: B1 VL with F2I, L9H
B5: MS-71 (antibody)
VH: not shown
VL: B1 VL with L9H, D73G
B6: MS-67 (antibody)
VH: not shown
VL: B1 VL
B7: MS-66 (antibody)
VH: not shown
VL: B1 VL with F2I, L9H
B8: MS-67 (antibody)
VH: not shown
VL: B1 VL
B9: MS-91 (antibody, V domains shown)
VH: QVQLVQSGPEVRKPGTSVKVSCKASGYTLKTYDLHWVRSVPGQGLQWMGWISHEGDKKVIVERFKAKVTIDWDRSTNTAYLQLSGLTSGDTAVYYCAKGSKHRLRDYALYDDDGALNWAVDVDYLSNLEFWGQGTAVTVSS
VL: DFVLTQSPLSLSVTPGESASISCKSSHSLIHGDRNNYLAWYVQKPGRSPQLLIYLASSRASGVPDRFSGSGSDTDFTLKISRVETEDVGTYYCMQGRESPWTFGQGTKVDIKR
B10: MS-92 (antibody, V domains shown)
VH: B9 VH with S25P, Y27N, Q46E, W72R, T87R
VL: B9 VL with F2I, L9H, T74K
B11: MS-72 (antibody, V domains shown)
VH: B9 VH with S25P, Y27N
VL: B9 VL with L9H
B12: MS-70 (antibody, V domains shown)
VH: B9 VH with S25P, Y27N
VL: B9 VL with L9H, R47Q, T74K

Columns and labels:
Assay in all cases: cell-based or functional assay
[1] = molecular target: HIV-1 Env of pseudovirus Du172.17 (HIV-1)
[2] = molecular target: HIV-1 Env of pseudovirus SC422661.8 (HIV-1)
[3] = molecular target: HIV-1 Env of pseudovirus 0260.v5.c36 (HIV-1)
[4] = molecular target: HIV-1 Env of pseudovirus RHPA4259.7 (HIV-1)
[5] = molecular target: HIV-1 Env of pseudovirus BB1012-11.TC21 (HIV-1)
[6] = molecular target: HIV-1 Env of pseudovirus CNE52 (HIV-1)
[7] = molecular target: HIV-1 pseudovirus Ce1176_A3 (HIV-1)
[8] = molecular target: HIV-1 pseudovirus X1193_c1 (HIV-1)
[9] = molecular target: HIV-1 pseudovirus 6952.v1.c20 (HIV-1)
[10] = molecular target: HIV-1 pseudovirus AC10.0.29 (HIV-1)
[11] = molecular target: HIV-1 pseudovirus SC05.8C11.2344 (HIV-1)
HIV-1 pseudovirus 263-8 = HIV-1 pseudovirus 263-8 (HIV-1)

| Binder | neutralization IC50 [1] | neutralization IC80 [1] | neutralization IC50 [2] | neutralization IC80 [2] | neutralization IC50 [3] | neutralization IC80 [3] | neutralization IC50 [4] | neutralization IC80 [4] | IC50 (neutralization in TZM.bl cells) [7] | IC80 (neutralization in TZM.bl cells) [7] | IC50 (neutralization in TZM.bl cells) [8] | IC80 (neutralization in TZM.bl cells) [8] | IC50 (neutralization in TZM.bl cells) [9] | IC80 (neutralization in TZM.bl cells) [9] | IC50 (neutralization in TZM.bl cells) [10] | IC80 (neutralization in TZM.bl cells) [10] | IC50 (neutralization in TZM.bl cells) [11] | IC80 (neutralization in TZM.bl cells) [11] | IC50 (neutralization in TZM.bl cells) (HIV-1 pseudovirus 263-8) | IC80 (neutralization in TZM.bl cells) (HIV-1 pseudovirus 263-8) | further results |
| --- | --- | --- | --- | --- | --- | --- | --- | --- | --- | --- | --- | --- | --- | --- | --- | --- | --- | --- | --- | --- | --- |
| B1 | 4.07 µg/mL | 15.6 µg/mL | 1.48 µg/mL | > 25 µg/mL | 0.03 µg/mL | 0.168 µg/mL | 0.254 µg/mL | 1.33 µg/mL |  |  |  |  |  |  |  |  |  |  |  |  | neutralization IC50 [5]: 0.044 µg/mL; neutralization IC80 [5]: 0.204 µg/mL; neutralization IC50 [6]: 1.05 µg/mL; neutralization IC80 [6]: 8.56 µg/mL |
| B2 |  |  |  |  |  |  |  |  | 0.096 µg/mL | 1.64 µg/mL | 0.1 µg/mL | 0.287 µg/mL | 0.206 µg/mL | 12.9 µg/mL | 0.04 µg/mL | 0.169 µg/mL | 0.708 µg/mL | 1.95 µg/mL | 0.011 µg/mL | 0.038 µg/mL |  |
| B3 |  |  |  |  |  |  |  |  | 0.087 µg/mL | 1.71 µg/mL | 0.072 µg/mL | 0.326 µg/mL | 0.182 µg/mL | 3.06 µg/mL | 0.029 µg/mL | 0.169 µg/mL | 0.456 µg/mL | 1.69 µg/mL | 0.01 µg/mL | 0.046 µg/mL |  |
| B4 |  |  |  |  |  |  |  |  | 0.165 µg/mL | 5.43 µg/mL | 0.086 µg/mL | 0.322 µg/mL | 0.284 µg/mL | > 25 µg/mL | 0.035 µg/mL | 0.213 µg/mL | 0.811 µg/mL | 2.54 µg/mL | 0.017 µg/mL | 0.06 µg/mL |  |
| B5 |  |  |  |  |  |  |  |  | 0.04 µg/mL | 0.796 µg/mL | 0.072 µg/mL | 0.265 µg/mL | 0.325 µg/mL | 7.92 µg/mL | 0.035 µg/mL | 0.177 µg/mL | 0.425 µg/mL | 1.41 µg/mL | 0.014 µg/mL | 0.041 µg/mL |  |
| B6 |  |  |  |  |  |  |  |  | 0.105 µg/mL | 1.9 µg/mL | 0.075 µg/mL | 0.303 µg/mL | 0.28 µg/mL | 7.89 µg/mL | 0.031 µg/mL | 0.186 µg/mL | 0.631 µg/mL | 2.14 µg/mL | 0.011 µg/mL | 0.037 µg/mL |  |
| B7 | 2.08 µg/mL | 11.3 µg/mL | 0.902 µg/mL | 5.82 µg/mL | 0.024 µg/mL | 0.092 µg/mL | 0.238 µg/mL | 0.745 µg/mL |  |  |  |  |  |  |  |  |  |  |  |  | neutralization IC50 [5]: 0.017 µg/mL; neutralization IC80 [5]: 0.074 µg/mL; neutralization IC50 [6]: 0.408 µg/mL; neutralization IC80 [6]: 3.74 µg/mL |
| B8 | 1.76 µg/mL | 9.31 µg/mL | 0.549 µg/mL | 2.83 µg/mL | 0.023 µg/mL | 0.088 µg/mL | 0.129 µg/mL | 0.706 µg/mL |  |  |  |  |  |  |  |  |  |  |  |  | neutralization IC50 [5]: 0.017 µg/mL; neutralization IC80 [5]: 0.071 µg/mL; neutralization IC50 [6]: 0.212 µg/mL; neutralization IC80 [6]: 1.81 µg/mL |
| B9 | 3.85 µg/mL | 23.9 µg/mL | 1.66 µg/mL | 22.1 µg/mL | 0.046 µg/mL | 0.171 µg/mL | 0.267 µg/mL | 1.82 µg/mL |  |  |  |  |  |  |  |  |  |  |  |  | neutralization IC50 [5]: 0.037 µg/mL; neutralization IC80 [5]: 0.17 µg/mL; neutralization IC50 [6]: 1.41 µg/mL; neutralization IC80 [6]: 10.6 µg/mL |
| B10 | 6.85 µg/mL | > 25 µg/mL | 1.53 µg/mL | > 25 µg/mL | 0.044 µg/mL | 0.35 µg/mL | 0.25 µg/mL | 1.16 µg/mL |  |  |  |  |  |  |  |  |  |  |  |  | neutralization IC50 [5]: 0.029 µg/mL; neutralization IC80 [5]: 0.127 µg/mL; neutralization IC50 [6]: 3.92 µg/mL; neutralization IC80 [6]: > 25 µg/mL |
| B11 |  |  |  |  |  |  |  |  | 0.074 µg/mL | 1.3 µg/mL | 0.072 µg/mL | 0.258 µg/mL | 0.643 µg/mL | 12.4 µg/mL | 0.051 µg/mL | 0.255 µg/mL | 0.791 µg/mL | 2.85 µg/mL | 0.02 µg/mL | 0.057 µg/mL |  |
| B12 |  |  |  |  |  |  |  |  | 0.06 µg/mL | 0.968 µg/mL | 0.111 µg/mL | 0.413 µg/mL | 0.285 µg/mL | 4.84 µg/mL | 0.053 µg/mL | 0.206 µg/mL | 0.508 µg/mL | 1.36 µg/mL | 0.016 µg/mL | 0.047 µg/mL |  |
